The values that follow come from IntAct's records for PubMed 17409324.

B1: Vang-like protein 1 (Homo sapiens), Q8TAA9 (parent)
chain: MDTESTYSGYSYYSSHSKKSHRQGERTRERHKSPRNKDGRGSEKSVTIQPPTGEPLLGNDSTRTEEVQDDNWGETTTAITGTSEHSISQEDIARISKDMEDSVGLDCKRYLGLTVASFLGLLVFLTPIAFILLPPILWRDELEPCGTICEGLFISMAFKLLILLIGTWALFFRKRRADMPRVFVFRALLLVLIFLFVVSYWLFYGVRILDSRDRNYQGIVQYAVSLVDALLFIHYLAIVLLELRQLQPMFTLQVVRSTDGESRFYSLGHLSIQRAALVVLENYYKDFTIYNPNLLTASKFRAAKHMAGLKVYNVDGPSNNATGQSRAMIAAAARRRDSSHNELYYEEAEHERRVKKRKARLVVAVEEAFIHIQRLQAEEQQKAPGEVMDPREAAQAIFPSMARALQKYLRITRQQNYHSMESILQHLAFCITNGMTPKAFLERYLSAGPTLQYDKDRWLSTQWRLVSDEAVTNGLRDGIVFVLKCLDFSLVVNVKKIPFIILSEEFIDPKSHKFVLRLQSETSV
partner: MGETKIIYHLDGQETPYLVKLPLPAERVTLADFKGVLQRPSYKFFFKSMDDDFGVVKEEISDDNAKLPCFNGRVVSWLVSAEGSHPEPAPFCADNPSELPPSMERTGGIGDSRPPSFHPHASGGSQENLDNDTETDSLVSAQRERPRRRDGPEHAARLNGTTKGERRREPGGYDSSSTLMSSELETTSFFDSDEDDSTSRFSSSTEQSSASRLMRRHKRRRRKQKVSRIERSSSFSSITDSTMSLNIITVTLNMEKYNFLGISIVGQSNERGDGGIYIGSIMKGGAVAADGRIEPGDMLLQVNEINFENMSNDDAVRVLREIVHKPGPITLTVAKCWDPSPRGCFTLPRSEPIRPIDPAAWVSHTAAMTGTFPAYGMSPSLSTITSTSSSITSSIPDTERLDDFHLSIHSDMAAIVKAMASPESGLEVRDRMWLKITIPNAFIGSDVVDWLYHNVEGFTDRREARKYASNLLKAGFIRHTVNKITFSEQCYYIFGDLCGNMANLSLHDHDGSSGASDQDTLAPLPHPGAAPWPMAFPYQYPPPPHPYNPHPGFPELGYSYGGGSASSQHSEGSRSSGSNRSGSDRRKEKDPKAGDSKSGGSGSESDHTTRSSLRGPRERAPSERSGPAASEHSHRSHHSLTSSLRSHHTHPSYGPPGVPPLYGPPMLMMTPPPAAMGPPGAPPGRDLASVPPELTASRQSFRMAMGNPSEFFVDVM

The variants in this assay derive from B1. As to conditions: with dvl3_mouse Dvl3, Q61062.
As for MDTESTYSGYSYYSSHSKKSHRQGERTRERHKSPRNKDGRGSEKSVTIQPPTGEPLLGNDSTRTEEVQDDNWGETTTAITGTSEHSISQEDIARISKDMEDSVGLDCKRYLGLTVASFLGLLVFLTPIAFILLPPILWRDELEPCGTICEGLFISMAFKLLILLIGTWALFFRKRRADMPRVFVFRALLLVLIFLFVVSYWLFYGVRILDSRDRNYQGIVQYAVSLVDALLFIHYLAIVLLELRQLQPMFTLQVVRSTEGESRFYSLGHLSIQRAALVVLENYYKDFTIYNPNLLTASKFRAAKHMAGLKVYNVDGPSNNATGQSRAMIAAAARRRDSSHNELYYEEAEHERRVKKRKARLVVAVEEAFIHIQRLQAEEQQKAPGEVMDPREAAQAIFPSMARALQKYLRITRQQNYHSMESILQHLAFCITNGMTPKAFLERYLSAGPTLQYDKDRWLSTQWRLVSDEAVTNGLRDGIVFVLKCLDFSLVVNVKKIPFIILSEEFIDPKSHKFVLRLQSETSV [D259E], the “effect of a mutation on the interaction” value is reported as “disrupting interaction strength”.
As for MDTESTYSGYSYYSSHSKKSHRQGERTRERHKSPRNKDGRGSEKSVTIQPPTGEPLLGNDSTRTEEVQDDNWGETTTAITGTSEHSISQEDIARISKDMEDSVGLDCKRYLGLTVASFLGLLVFLTPIAFILLPPILWRDELEPCGTICEGLFISMAFKLLILLIGTWALFFRKRRADMPRVFVFRALLLVLIFLFVVSYWLFYGVRILDSRDRNYQGIVQYAVSLVDALLFIHYLAIVLLELRQLQPMFTLQVVRSTDGESRFYSLGHLSIQQAALVVLENYYKDFTIYNPNLLTASKFRAAKHMAGLKVYNVDGPSNNATGQSRAMIAAAARRRDSSHNELYYEEAEHERRVKKRKARLVVAVEEAFIHIQRLQAEEQQKAPGEVMDPREAAQAIFPSMARALQKYLRITRQQNYHSMESILQHLAFCITNGMTPKAFLERYLSAGPTLQYDKDRWLSTQWRLVSDEAVTNGLRDGIVFVLKCLDFSLVVNVKKIPFIILSEEFIDPKSHKFVLRLQSETSV [R274Q], the “effect of a mutation on the interaction” value was “with no effect”.
Take MDTESTYSGYSYYSSHSKKSHRQGERTRERHKSPRNKDGRGSEKSVTIQPPTGEPLLGNDSTRTEEVQDDNWGETTTAITGTSEHSISQEDIARISKDMEDSVGLDCKRYLGLTVASFLGLLVFLTPIAFILLPPILWRDELEPCGTICEGLFISMAFKLLILLIGTWALFFRKRRADMPRVFVFRALLLVLIFLFVVSYWLFYGVRILDSRDRNYQGIVQYAVSLVDALLFIHYLAIVLLELRQLQPMFTLQVVRSTDGESRFYSLGHLSIQRAALVVLENYYKDFTIYNPNLLTASKFRAAKHMAGLKVYNVDGPSNNATGQSRATIAAAARRRDSSHNELYYEEAEHERRVKKRKARLVVAVEEAFIHIQRLQAEEQQKAPGEVMDPREAAQAIFPSMARALQKYLRITRQQNYHSMESILQHLAFCITNGMTPKAFLERYLSAGPTLQYDKDRWLSTQWRLVSDEAVTNGLRDGIVFVLKCLDFSLVVNVKKIPFIILSEEFIDPKSHKFVLRLQSETSV [M328T]: the “effect of a mutation on the interaction” value is “with no effect”.
With MDTESTYSGYSYYSSHSKKSHRQGERTRERHKSPRNKDGRGSEKSVTIQPPTGEPLLGNDSTRTEEVQDDNWGETTTAITGTSEHSISQEDIARISKDMEDSVGLDCKRYLGLTVASFLGLLVFLTPIAFILLPPILWRDELEPCGTICEGLFISMAFKLLILLIGTWALFFRKRRADMPRVFVFRALLLVLIFLFVVSYWLFYGVRILDSRDRNYQGIVQYAVSLVDALLFIHYLAIVLLELRQLQPMFTLQVVRSTDGESRFYSLGHLSIQRAALVVLENYYKDFTIYNPNLLTASKFRAAKHMAGLKVYNVDGPSNNATGQSRAMIAAAARRRDSSHNELYYEEAEHERRVKKRKARLVVAVEEAFIHIQRLQAEEQQKAPGEVMDPREAAQAIFPSMARALQKYLRITRQQNYHSMESILQHLAFCITNGMTPKAFLERYLSAGPTLQYDKDRWLSTQWRLVNDEAVTNGLRDGIVFVLKCLDFSLVVNVKKIPFIILSEEFIDPKSHKFVLRLQSETSV [S467N], the “effect of a mutation on the interaction” value is given as “with no effect”.
